In patent publication US10801046B2, “Methods and materials for biosynthesizing multifunctional, multivariate molecules via carbon chain modification” (INVISTA NORTH AMERICA S.A.R.L., priority 2016, dated 2020):

Key:
[1] = tested on: heptanedioyl-[acp] or heptanedioyl-[acp] methyl ester; assay: Thioesterase enzyme activity assay, release of holo-ACP monitored by absorbance at 412 nm; assay type: biochemical; conditions: purified thioesterase, 37° C., 30 min, FIG. 41
Experimental: The thioesterases were expressed and purified following procedures disclosed herein. The enzyme activity assay was performed in duplicate or triplicate in a buffer having heptanedioyl-[acp] or heptanedioyl-[acp] methyl ester as substrate. The enzyme activity assay reaction was initiated by adding purified thioesterase gene products to the assay buffer and incubating at 37° C. for 30 min. The release of holo-ACP was monitored by absorbance at 412 nm. The absorbance associated with the empty vector control is very low. Many of the gene products of thioesterases accepted heptanedioyl-[acp] or heptanedioyl-[acp] methyl ester as substrate as confirmed via relative spectrophotometry (see FIG. 41).

[2] = Carboxylate reductase activity, 7-hydroxyheptanoate to 7-hydroxyheptanal, NADPH consumption at 340 nm; assay type: biochemical; conditions: enhanced by gene product of sfp, 20 min, against empty vector control, FIG. 44
Experimental: A sequence encoding a His-tag was added to the genes from Mycobacterium marinum, Mycobacterium smegmatis, Segniliparus rugosus, Mycobacterium smegmatis, Mycobacterium massiliense, and Segniliparus rotundus that encode the carboxylate reductases of SEQ ID NOs: 25 (GenBank Accession No. ACC40567.1), 27 (GenBank Accession No. ABK75684.1), 29 (GenBank Accession No. ABK71854.1), 31 (GenBank Accession No. EFV11917.1), 37 (GenBank Accession No. EIV11143.1), and 38 (GenBank Accession No. ADG98140.1) such that N-terminal HIS tagged carboxylate reductases could be produced. Each of the modified genes was cloned into a pET Duet expression vector alongside a sfp gene encoding a His-tagged phosphopantetheine transferase from Bacillus subtilis, both under control of the T7 promoter.
Each expression vector was transformed into a BL21[DE3] E. coli host and the resulting recombinant E. coli strains were cultivated at 37° C. in a 250 mL shake flask culture containing 50 mL LB media and antibiotic selection pressure, with shaking at 230 rpm. Each culture was induced overnight at 37° C. using an auto-induction media.
The pellet from each induced shake flask culture was harvested via centrifugation. Each pellet was resuspended and lysed via sonication. The cell debris was separated from the supernatant via centrifugation. The carboxylate reductases and phosphopantetheine transferase were purified from the supernatant using Ni-affinity chromatography, diluted 10-fold into 50 mM HEPES buffer (pH=7.5) and concentrated via ultrafiltration.
Enzyme activity (i.e., 7-hydroxyheptanoate to 7-hydroxyheptanal) assays were performed in triplicate in a buffer composed of a final concentration of 50 mM HEPES buffer (pH=7.5), 2 mM […], 10 mM MgCl2, 1 mM ATP, and 1 mM NADPH. Each enzyme activity assay reaction was initiated by adding purified carboxylate reductase and phosphopantetheine transferase or the empty vector control to the assay buffer containing the 7-hydroxyheptanoate and then incubated at room temperature for 20 min. The consumption of NADPH was monitored by absorbance at 340 nm.

[3] = Carboxylate reductase activity, N7-acetyl-7-aminoheptanoate to N7-acetyl-7-aminoheptanal, NADPH consumption at 340 nm; assay type: biochemical; conditions: enhanced by gene product of sfp, 2 mM substrate, 20 min, against empty vector control, FIG. 45
Experimental: The activity of each of the N-terminal His-tagged carboxylate reductases of SEQ ID NOs: 29 (GenBank Accession No. ABK71854.1), 37 (Genbank Accession No. EIV11143.1), and 38 (GenBank Accession No. ADG98140.1) (see Examples 4) for converting N7-acetyl-7-aminoheptanoate to N7-acetyl-7-aminoheptanal was assayed in triplicate in a buffer composed of a final concentration of 50 mM HEPES buffer (pH=7.5), 2 mM N7-acetyl-7-aminoheptanoate, 10 mM MgCl2, 1 mM ATP, and 1 mM NADPH. The assays were initiated by adding purified carboxylate reductase and phosphopantetheine transferase or the empty vector control to the assay buffer containing the N7-acetyl-7-aminoheptanoate then incubated at room temperature for 20 min. The consumption of NADPH was monitored by absorbance at 340 nm.

heptanedioyl-ACP = assay type: cell-based, Escherichia coli; conditions: top 150 hits screened in vivo

B1: 14 TE: Paenibacillus lactis thioesterase (protein)
chain: MVEKWTETYTIQSVDADFRGDCRWSSLLSIMQRAADKHIEALGIDREEMIERGLGWMLITLEADMTSIPRDMETIHVETWSRGSKGVLWHRDYRIMNDHGEQVGGARSVWTLVDIQKRKILRPSMFPYDVPIGQDSVGELPSKAVLPEGIELGEAYTTVVRYSGIDVNGHLNNARYADLCMDVLDEPELQGDKVTGFKITYNHEARLKDTIIVRRSGEIEGRIFVQGVSPEGTNFFEAALVKRKQ
modifications: Paenibacillus lactis 154
notes: Paenibacillus lactis thioesterase
[1]
  synthesis of holo-ACP using heptanedioyl-[acp] methyl ester as substrate, compared to using heptanedioyl-[acp] as substrate: more efficiently

B2: SEQ ID NO: 29: Mycobacterium smegmatis carboxylate reductase (protein)
chain: MTSDVHDATDGVTETALDDEQSTRRIAELYATDPEFAAAAPLPAVVDAAHKPGLRLAEILQTLFTGYGDRPALGYRARELATDEGGRTVTRLLPRFDTLTYAQVWSRVQAVAAALRHNFAQPIYPGDAVATIGFASPDYLTLDLVCAYLGLVSVPLQHNAPVSRLAPILAEVEPRILTVSAEYLDLAVESVRDVNSVSQLVVFDHHPEVDDHRDALARAREQLAGKGIAVTTLDAIADEGAGLPAEPIYTADHDQRLAMILYTSGSTGAPKGAMYTEAMVARLWTMSFITGDPTPVINVNFMPLNHLGGRIPISTAVQNGGTSYFVPESDMSTLFEDLALVRPTELGLVPRVADMLYQHHLATVDRLVTQGADELTAEKQAGAELREQVLGGRVITGFVSTAPLAAEMRAFLDITLGAHIVDGYGLTETGAVTRDGVIVRPPVIDYKLIDVPELGYFSTDKPYPRGELLVRSQTLTPGYYKRPEVTASVFDRDGYYHTGDVMAETAPDHLVYVDRRNNVLKLAQGEFVAVANLEAVFSGAALVRQIFVYGNSERSFLLAVVVPTPEALEQYDPAALKAALADSLQRTARDAELQSYEVPADFIVETEPFSAANGLLSGVGKLLRPNLKDRYGQRLEQMYADIAATQANQLRELRRAAATQPVIDTLTQAAATILGTGSEVASDAHFTDLGGDSLSALTLSNLLSDFFGFEVPVGTIVNPATNLAQLAQHIEAQRTAGDRRPSFTTVHGADATEIRASELTLDKFIDAETLRAAPGLPKVTTEPRTVLLSGANGWLGRFLTLQWLERLAPVGGTLITIVRGRDDAAARARLTQAYDTDPELSRRFAELADRHLRVVAGDIGDPNLGLTPEIWHRLAAEVDLVVHPAALVNHVLPYRQLFGPNVVGTAEVIKLALTERIKPVTYLSTVSVAMGIPDFEEDGDIRTVSPVRPLDGGYANGYGNSKWAGEVLLREAHDLCGLPVATFRSDMILAHPRYRGQVNVPDMFTRLLLSLLITGVAPRSFYIGDGERPRAHYPGLTVDFVAEAVTTLGAQQREGYVSYDVMNPHDDGISLDVFVDWLIRAGHPIDRVDDYDDWVRRFETALTALPEKRRAQTVLPLLHAFRAPQAPLRGAPEPTEVFHAAVRTAKVGPGDIPHLDEALIDKYIRDLREFGLI
modifications: Mycobacterium smegmatis (strain ATCC 700084 / mc(2)155)
notes: Mycobacterium smegmatis carboxylate reductase
[2]
  acceptance of 7-hydroxyheptanoate as substrate, forming 7-hydroxyheptanal: accepted 7-hydroxyheptanoate as substrate
[3]
  acceptance of N7-acetyl-7-aminoheptanoate as substrate, forming N7-acetyl-7-aminoheptanal: accepted N7-acetyl-7-aminoheptanoate as substrate

B3: SEQ ID NO: 37: Mycobacterium massiliense carboxylate reductase (protein)
chain: MTNETNPQQEQLSRRIESLRESDPQFRAAQPDPAVAEQVLRPGLHLSEAIAALMTGYAERPALGERARELVIDQDGRTTLRLLPRFDTTTYGELWSRTTSVAAAWHHDATHPVKAGDLVATLGFTSIDYTVLDLAIMILGGVAVPLQTSAPASQWTTILAEAEPNTLAVSIELIGAAMESVRATPSIKQVVVFDYTPEVDDQREAFEAASTQLAGTGIALETLDAVIARGAALPAAPLYAPSAGDDPLALLIYTSGSTGAPKGAMHSENIVRRWWIREDVMAGTENLPMIGLNFMPMSHIMGRGTLTSTLSTGGTGYFAASSDMSTLFEDMELIRPTALALVPRVCDMVFQRFQTEVDRRLASGDTASAEAVAAEVKADIRDNLFGGRVSAVMVGSAPLSEELGEFIESCFELNLTDGYGSTEAGMVFRDGIVQRPPVIDYKLVDVPELGYFSTDKPHPRGELLLKTDGMFLGYYKRPEVTASVFDADGFYMTGDIVAELAHDNIEIIDRRNNVLKLSQGEFVAVATLEAEYANSPVVHQIYVYGSSERSYLLAVVVPTPEAVAAAKGDAAALKTTIADSLQDIAKEIQLQSYEVPRDFIIEPQPFTQGNGLLTGIAKLARPNLKAHYGPRLEQMYAEIAEQQAAELRALHGVDPDKPALETVLKAAQALLGVSSAELAADAHFTDLGGDSLSALSFSDLLRDIFAVEVPVGVIVSAANDLGGVAKFVDEQRHSGGTRPTAETVHGAGHTEIRAADLTLDKFIDEATLHAAPSLPKAAGIPHTVLLTGSNGYLGHYLALEWLERLDKTDGKLIVIVRGKNAEAAYGRLEEAFDTGDTELLAHFRSLADKHLEVLAGDIGDPNLGLDADTWQRLADTVDVIVHPAALVNHVLPYNQLFGPNVVGTAEIIKLAITTKIKPVTYLSTVAVAAYVDPTTFDEESDIRLISAVRPIDDGYANGYGNAKWAGEVLLREAHDLCGLPVAVFRSDMILAHSRYTGQLNVPDQFTRLILSLIATGIAPGSFYQAQTTGERPLAHYDGLPGDFTAEAITTLGTQVPEGSEGFVTYDCVNPHADGISLDNFVDWLIEAGYPIARIDNYTEWFTRFDTAIRGLSEKQKQHSLLPLLHAFEQPSAAENHGVVPAKRFQHAVQAAGIGPVGQDGTTDIPHLSRRLIVKYAKDLEQLGLL
modifications: Mycobacterium abscessus subsp. bolletii 2B-0307
notes: Mycobacterium massiliense carboxylate reductase
[2]
  acceptance of 7-hydroxyheptanoate as substrate, forming 7-hydroxyheptanal: accepted 7-hydroxyheptanoate as substrate
[3]
  acceptance of N7-acetyl-7-aminoheptanoate as substrate, forming N7-acetyl-7-aminoheptanal: accepted N7-acetyl-7-aminoheptanoate as substrate

B4: 11TE: Bacillus coagulans thioesterase (protein)
chain: MANGSSLYKGQYHIELRDVDFTKKLKLSALFSLFQDIASLAAEDLGYGIETLEKKYKVAWILTRIRVDILRHPTWDENITIETWPLQPSKIDFDRDFLVKDHTGAVIIKAASKWVVMGLNDRKIKRTESINIHYPENRTERAIEGKFGKFKDFGGLEPAYQKVIGYSDIDFNGHLNNSKYVDYIMDCFLPDFHKRHPIHTIEINFNQEALPGDSITLYKDISKMDEHELYVEGVNQTDHHTIFKSHITIH
modifications: Bacillus coagulans (strain 2-6)
notes: Bacillus coagulans thioesterase
heptanedioyl-ACP
  activity toward heptanedioyl-ACP in vivo: displayed considerable activity toward heptanedioyl-ACP
[1]
  synthesis of holo-ACP using heptanedioyl-[acp] methyl ester as substrate, compared to using heptanedioyl-[acp] as substrate: more efficiently
